Measured values taken from article PMC6009930, “Allosteric inhibition of carnosinase (CN1) by inducing a conformational shift” (Journal of Enzyme Inhibition and Medicinal Chemistry, 2017).

Substrate: NCCC(=O)N[C@@H](Cc1cnc[nH]1)C(=O)O
Test: OPA fluorescence assay of liberated histidine, Michaelis-Menten fit
Type: biochemical, Homo sapiens
Settings: pH 7, control without thiol
Excerpt: OPA fluorescence assay of liberated histidine, Michaelis-Menten fit on recombinant CN1 (rCN1)

B1: recombinant CN1 (rCN1) (Homo sapiens) (protein)
chain: SSPSPPPALLEKVFQYIDLHQDEFVQTLKEWVAIESDSVQPVPRFRQELFRMMAVAADTLQRLGARVASVDMGPQQLPDGQSLPIPPVILAELGSDPTKGTVCFYGHLDVQPADRGDGWLTDPYVLTEVDGKLYGRGATDNKGPVLAWINAVSAFRALEQDLPVNIKFIIEGMEEAGSVALEELVEKEKDRFFSGVDYIVISDNLWISQRKPAITYGTRGNSYFMVEVKCRDQDFHSGTFGGILHEPMADLVALLGSLVDSSGHILVPGIYDEVVPLTEEEINTYKAIHLDLEEYRNSSRVEKFLFDTKEEILMHLWRYPSLSIHGIEGAFDEPGTKTVIPGRVIGKFSIRLVPHMNVSAVEKQVTRHLEDVFSKRNSSNKMVVSMTLGLHPWIANIDDTQYLAAKRAIRTVFGTEPDMIRDGSTIPIAKMFQEIVHKSVVLIPLGAVDDGEHSQNEKINRWNYIEGTKLFAAFFLEMAQLH
notes: FLAG-tagged, secreted by transfected CHO cells, purified from supernatant; homodimer in vitro; dinuclear Zn site
With B1 the Km was 800 ± 100 µM and the Vmax was 0.07 µmol/min/mg.
